# Paper PMC2720046 (Science (New York, N.Y.), 2008)
# Residue numbers refer to the chain shown, from its start. Numbers in names are those of the source.
# B1: CEP55 160-217 (protein)
# chain: FNSSINNIHEMEIQLKDALEKNQQWLVYDQQREVYVKGLLAKIFELEKKTETAAHSLP
# B2: ALIX^Y806A: full-length ALIX mutant tagged with GFP (protein, UniProt Q8WUM4 1-868, looked up, variant Y806A)
# chain: MATFISVQLKKTSEVDLAKPLVKFIQQTYPSGGEEQAQYCRAAEELSKLRRAAVGRPLDKHEGALETLLRYYDQICSIEPKFPFSENQICLTFTWKDAFDKGSLFGGSVKLALASLGYEKSCVLFNCAALASQIAAEQNLDNDEGLKIAAKHYQFASGAFLHIKETVLSALSREPTVDISPDTVGTLSLIMLAQAQEVFFLKATRDKMKDAIIAKLANQAADYFGDAFKQCQYKDTLPKEVFPVLAAKHCIMQANAEYHQSILAKQQKKFGEEIARLQHAAELIKTVASRYDEYVNVKDFSDKINRALAAAKKDNDFIYHDRVPDLKDLDPIGKATLVKSTPVNVPISQKFTDLFEKMVPVSVQQSLAAYNQRKADLVNRSIAQMREATTLANGVLASLNLPAAIEDVSGDTVPQSILTKSRSVIEQGGIQTVDQLIKELPELLQRNREILDESLRLLDEEEATDNDLRAKFKERWQRTPSNELYKPLRAEGTNFRTVLDKAVQADGQVKECYQSHRDTIVLLCKPEPELNAAIPSANPAKTMQGSEVVNVLKSLLSNLDEVKKEREGLENDLKSVNFDMTSKFLTALAQDGVINEEALSVTELDRVYGGLTTKVQESLKKQEGLLKNIQVSHQEFSKMKQSNNEANLREEVLKNLATAYDNFVELVANLKEGTKFYNELTEILVRFQNKCSDIVFARKTERDELLKDLQQSIAREPSAPSIPTPAYQSSPAGGHAPTPPTPAPRTMPPTKPQPPARPPPPVLPANRAPSATAPSPVGAGTAAPAPSQTPGSAPPPQAQGPPYPTAPGYPGYCQMPMPMGYNPYAYGQYNMPYPPVYHQSPGQAPYPGPQQPSYPFPQPPQQSYYPQQ
# modifications: full-length GFP fusion
# B3: wild-type ALIX: full-length wild-type ALIX tagged with GFP (protein, UniProt Q8WUM4 1-868, looked up)
# chain: B2 chain with A806Y
# modifications: full-length GFP fusion
# Legend:
# [1] = system: CEP55-EABR; assay: Analytical ultracentrifugation of CEP55-EABR to peptide mixtures; type: binding; settings: TSG101 peptide added to preformed 2:1 CEP55:ALIX peptide complex
# [2] = molecular target: T1, CEP55-EABR (residues 160−217) (Homo sapiens, UniProt Q53EZ4); assay: ITC titration of peptide into CEP55-EABR solution; type: binding; settings: compared with ALIX peptide
# T1 sequence (Q53EZ4 160-217): B1 chain
# [3] = system: CEP55-EABR; type: binding; settings: pull-down by GST-ALIX fragment with TSG101 peptide competitor
# [4] = molecular target: T2, ALIX 797-809 (Homo sapiens, UniProt Q8WUM4); assay: ITC
# T2 chain: QAQGPPYPTYPGY
# [5] = molecular target: T3, TSG101 154-166 (Homo sapiens, UniProt Q99816); assay: ITC
# T3 chain: QATGPPNTSYMPG
# [6] = system: midbodies in HeLa cells; assay: Midbody localization of wild-type and mutant GFP-ALIX expressed in HeLa cells; type: cell-based; settings: full-length GFP-tagged ALIX, α−tubulin staining
molecule,measurement,setting,value
"TSG101 peptide: related TSG101 peptide (residues 154 to 166) (QATGPPNTSYMPG; UniProt Q99816 154-166, looked up, fragment)",competition with ALIX peptide for CEP55 site,[1],"a peak corresponding to the equivalent amount of uncomplexed peptide is formed, suggesting that TSG101 and ALIX compete for the same site"
same,affinity relative to ALIX peptide,[2],essentially the same affinity and stoichiometry
same,competition for CEP55-EABR binding site,[3],the two peptides interact with the same site
B1,Kd,[4],1000 nM
same,Kd,[5],~1000 nM
B2,midbody localization of GFP-ALIX,[6],no midbody localization above background
B3,midbody localization of GFP-ALIX,[6],strongly localized to midbodies
